Test results as given in the DeepSol protein solubility set.

assay: soluble on expression in E. coli; label from the status in PepcDB or PDB records

Sequence	soluble on expression in E. coli
MSLIREQVVRPLNAMVDASEKIKNRNFDVMLEETSSTEMGILSRTFNSMAGDLGKLYRGLEHAVNEKTNKLQMANQSLQVLYHSSQELTASRITASNFQTILRHWVALEGICALRLEIEEEAGKPLILQEGKPSGAVMLQTPLTLDGHHLGFLYWEAGSPEPDRALIDNFALILSRAIYYNQAQRQAEQLLLMEERATIARELHDSLAQSLSYLKIQLTLLKRSVTPLKSDGDLSKTENIIREIDKGLSDAYTQLRELLTTFRLTLTEGSFGQSLLGMLTQLSGQTDAKIELNNALSSIALDAHQQVHLVQLIREATINAIKHAKATKIKVNCQEQQGRVQVTIEDDGVGFDLQDHKINHYGMSIMQERAARLRGELKVESAPGKGCKVVLTYQQSEEKNKNEEGHHHHHH	soluble
MGSDKIHHHHHHMKTIMYLHAGAEMYGSDKVLLQLVTGLDKKQFKPIVVLPEHGPLEKALETNDIQTEVVAYPILRRKYFNPKGIFNYASGYFKAEKVLANLAIKYHVDLIHVNTLAVLEGITLKKRIKKPLIWHVHEILLSPKFMWKLTAYLSAKYADKIVVVSNATGEHLKKAGYAKENQIVTIYNGINIPKGLENSDFRQEFDIPKNAFVFGHVGRINAWKGQEDFLKASLKLMSNYSKVHVLFSGNAYKGEEWREEKLKKEINESGFSDRIHYLGFQHEIRKVFNTMNVFVSSSIRPDPFPMVTLEAMANSKPIVSYDHGGPSELIVNAKTGYLVQPHNIDDLSLKMSMLINPKLESKFGVVGRKRVLSEFSETKFLQNFSFLYGDM	not soluble
MAHHHHHHMKWKWYNTKNICTLTNVFLSKHPYKPKTREIIHPHMTPPEYLAPSDCFQAKTGELQQYIPNNYYRVKWIESLRSGEYLGEDYPWNLLPNWKYWRKRKYNVKYEEIPWFISKVKGVSYYKRLNVWMVQWVENGVHRIRRFRCAFGLLQAKLAAEQFRKKLEEAGRVDNRKTERQIRMDYIQKKDERLLRKKKYSKISKGQF	not soluble
MAHHHHHHMEYAQKSARLPRSAEEKEQWKRVIVILEHCPLQTIQTDRGFELLSDRHRSYHARHNQDPADWRPDVVHQCLLHLQDSPLNRAGMLEVFLRTKKQVCIAVDPRLRVPRNVRLFEKMMVSLLFKLKVRASTGYLSLLRVVGNPITDHIPAGTRLYRVEKDGDLIDPFTFCASCGYAADVLDAQRTDRKISLARRRLTSSTSGTLEETTAEAGTEEFAKAQRKAAERRQFQPFAFIIGGMSRGDVSVDYARPGEVSSIRLGDRGMSAAAVISTLLHGFEEEWLREDNEAC	soluble
MSLRTVLITGTTSGIGYALSELFAKKECHVILVSRNAMKLSAQKQKLENGNNRIDTITCDLEQTNAAEIIYKSIKQNGWQVDILVNNAGFNEAGLFSETDATCEQGMINLHINFVTDMMKLFIPEMIQNSHGHILNVGSTGSYIACPKDAVYAASKAYILHLSKAVHAELKGTGVTVTTLCPGSTRTEFAHKAKIEHTLLFKIFVMSPHKVALSGLRAMEKGKSVIIPGLYNKILVLCSRLLPYSFIGWMTKKMLEGHHHHHH	not soluble
MGSDKIHHHHHHMIKAMYSGVSGMKANQTKLDVIGNNVANAGTTSFKKSSARITDSFYQTVLYASAPTAALGGTNLGQVGVGSKISSINKDMVQGNVQPTNRPSDLMIDGDGYLPVVRQGTVMYTRDGSFNLDTGFKAADGALKNIKGGRLVNGDGYMLQGMIYDGEYKADTGEFVKKGDAKGKEPIVIPLQSISPKDGTVQNVLEYNISKDGTVEFLLSDGQRTQFVYDIPDGAKVGDTPAGIDKLKGTIQKVQIYAFQNPAGLDAAGGNLFKPSANSGDPQIAGATGTIIQGAIEASNVDIAEEFTEMIIASRSFQANSKIISTSDEILQEIINLKR	not soluble
MGSDKIHHHHHHMFIVSKQTTTEYGTGCFAAPSSSCQSEYNPKVENDAVAHNSISGLRGSLRRNSSNLSSQLTALQETCLADAAQIEINCSTSNAKQAFFVKIEVPTGEQGVLHFSPSSGDISQVFTPIQNGCGHGVWKFVVCTMENGSEIAHSQVSRNLDGVGILFFNVYEDLEIRLAQQEFLHISHCHTRRH	not soluble
MRNVELIFIPTPTVGHLVPFLEFARRLIEQDDRIRITILLMKLQGQSHLDTYVKSIASSQPFVRFIDVPELEEKPTLGSTQSVEAYVYDVIERNIPLVRNIVMDILTSLALDGVKVKGLVVDFFCLPMIDVAKDISLPFYVFLTTNSGFLAMMQYLADRHSRDTSVFVRNSEEMLSIPGFVNPVPANVLPSALFVEDGYDAYVKLAILFTKANGILVNSSFDIEPYSVNHFLQEQNYPSVYAVGPIFDLKAQPHPEQDLTRRDELMKWLDDQPEASVVFLCFGSMARLRGSLVKEIAHGLELCQYRFLWSLRKEEVTKDDLPEGFLDRVDGRGMICGWSPQVEILAHKAVGGFVSHCGWNSIVESLWFGVPIVTWPMYAEQQLNAFLMVKELKLAVELKLDYRVHSDEIVNANEIETAIRYVMDTDNNVVRKRVMDISQMIQRATKNGGSSFAAIEKFIYDVIGIKP	soluble
MPEEKQKKSVLEKALKRIEENFGKGSIMILGDETQVQPVEVIPTGSLAIDIATGVGGYPRGRIVEIFGQESSGKTTLALHAIAEAQKMGGVAAFIDAEHALDPVYAKNLGVDLKSLLISQPDHGEQALEIVDELVRSGVVDLIVVDSVAALVPRAEIEGAMGDMQVGLQARLMSQALRKIAGSVNKSKAVVIFTNQIRMKIGVMFGSPETTTGGLALKFYATMRMEVRRGEPIKEGKDVIGNVISVKIVKNKVAPPFKTAQTYIIYGKGIDREYELFNIAVNEGIVDRKGSWYYYTTLKGEEVSLGQGSSNAVQFLKDNPEIAGEIERRIREKYGLLSVEKEEQRKEKKSSGEEAS	soluble
TLQIQFKKYELPPLPYKIDALEPYISKDIIDVHYNGHHKGYVNGANSLLERLEKVVKGDLQTGQYDIQGIIRGLTFNINGHKLHALYWENMAPSGKGGGKPGGALADLINKQYGSFDRFKQVFTETANSLPGTGWAVLYYDTESGNLQIMTFENHFQNHIAEIPIILILDEFEHAYYLQYKNKRADYVNAWWNVVNWDAAEKKLQKYLTK	soluble
MSKLSFRARALDASKPLPVFRCEDLPDLHEYASINRAVPQMPTGMEKEEESVMLRFFSLYFYRLYPPSTRSLLCASLHKMAAMFLPDGNGDGAHTSPLVIPHSGWLVGLIRISL	not soluble
MAGDPNSMPVLSIIACGMLEDELVHVLIRDCEIRQLIVVENNNISGFLRKLRSGGLVPRVISLDRVPMLLETGFSPGFKKISKMLMHFHFFRKMNEKIESGAGIKIDVVINLLRLGLHVDLELLKSEVYKNVREMAKFSDGILIFYGTCGHVLGGLERDFADLECPLFFLKDSSGEIVEDCISAALGGNDAYAGAMLECRGKGTIYLTPMWASSWKMLEKESGNRDLNNRYLKNSRYCLAAKIDSGLLYDPYFDRNVEDFALTFGMKIINMSGSSEVAEKSYLAARKAVLRKTAAALEHHHHHH	not soluble
MAHHHHHHMDSGTKREFGRNVTNVDDFKGAKLTPSKIHHQKFEGSDKRHGVRLADEGKWCIHKRSRVEPVAAGPSRERSVEETKSTTTCCSLPLPSQETNLCSIRGDSNTCSSDDSSIERYFDESCEAIEAPTAPAPRPPSPTWNNALRTVSGTAAAVLQDLKNAASLQTDQSSSSEVLPSPPVIPLIL	not soluble
MGLVTSILGRREYRLLQNSVTKKHLCKFMGVEFDYNDLDEITEIRVGENIFDTFESYARFAMKDTMKSIFAECKAMKTCLARIEREKQTEASMNHKIRQCYITLRRLCQLYYKFYQDLEKLKIPEHAWNVPLVKKAEKSIVVLDHAIYKFKAKGNLDVKKFREEVSHQYNIIEEVLKQFKSMDEGEYVEMRMKEEMKTEEA	not soluble
IPAGELQIIDKIDAAFKVAATAAATAPADDKFTVFEAAFNKAIKETTGGAYDTYKCIPSLEAAVKQAYAATVAAAPQVKYAVFEAALTKAITAMSEVQKVSQ	soluble
MPNDMTHIDKIQALAFSIGKKMQTELLEQMQATGLTPPQFYILKILDHYGASRATTLAKKMYVKPSAITVMIDRLIDQELVERYHDKDDRRVVIIELTKKGKARVEEAMTARNEHIAKYFSHLELQEREDLLRLFEKLETIICGTQEKKENN	not soluble
MAPPVLKNEDSDLAVREPAAKKSKKSNGKAQAVKSESSESMFMTEATTDENIYPDATFQSYEEFDQKFNVWKAKNLHPFRVASSESLRTEDGSISEKFKYRYVVFHCARYGVPRMRGEGKRPNQNYLPCSCTAMIRLNFQFHEQCLRLTSLETRHSNHTICKDLYEKMCVKEEKRKHVTPRRTMSGPKSRSSSVATAGNADTSLISDRSINVKKEPSEERADSEHSHGQSPVDLHYEVTRPYEVSPSAPISEITTPFVLPTQKVGLNDLVPTSQFSPMDYQSLQNQIILNQVKLNAMTNNVYNPFGNWPASSLVPTPAPPFLTPTPSQVSPALSSSVDENEAPKIFHSLEAVRPIPLRPSQNSAFYQMLNSSSTSPIIAVTKAEVDSVLGAASRLLNDNHLPEDVLHSRVKQLNGLISQWTHS	not soluble
MGSDKIHHHHHHMDGREIELKLALAPEDLARIAQRPCLSAGRLAEPTSKRLSSIYYDTSDHILASQGIAVRVRRTGSGFVQTVKTAGTSVSGLFDRDEWEVPLASPDLDAEQLRLTGLAAFADGELADLLTPVFSTEVDRVLIRLGGEGWEAEVALDRGALVVGDRREEISEVELELVSGTPAHLFRLATHIQAETAARPLCLSKSERGYSLAAGKTAPVVKAKAPILTPAMTVEESFRAIARACLEHLMLNERCLLATEAGEAIHQMRVAMRRMRSAIKVFKAVTEGPDLERIKDDLRWLLAHLGPARDADVFLSEIVDPVLAAHPGNAGLIALRAHWRKDRETKLAAAISAVKSKRYATMTLNLGRWVETGDWLTPSHGGARRRLAEPIATFAAGRVGKVVTRLLKEGGETLSRLSPEQRHAVRIRGKQVRYAGEFFASLVPRKSTKVYLSELAELQDVLGKLNDIAVAGPKLSGRGAGAGSSRAAGLIAGWHQSRRATLLNDADKCWKRWRALPLPWDEK	not soluble
MKLHEAKLLLNDPTFSIDSITYQELEMDSDYVDVHEDISYSKDNVDLHSHTFFEILFCQSGSLQYMVGNTRYQLVKNSIVCIPPGVSHCPLYLEQLSEPYRRTVMWISNKIYHQYMNLLNNDPIEKSSCLLPQNVFLLSGNILYQVEELYEKMLNIPPDFSGAELYKIGLSAQIVTLFHQFLNSHEINPLKPEKTILLDEIIHFIENHLSEELSAKRIAAHFLVSESSINQLFSKQISLSLYRYITQRRLIEAKNLISSQTPLKKLPELCGFSDYSVFYKAFTKQYGISPKEYKNRIFKMQQ	soluble
MGSDKIHHHHHHMKQKNYHSCTVGQIVAGNFDTTKVFSRYHIDFCCHGNTPFAEACRNRGIDPEAVAHELNELQENTVSNAPDFAGWPIDLLIDYVLKIHHRGIRAKGPQIEALLTKVTEAHSKNHPELLQVQALFRDSLLDLENHLSKEENVLFPYVYEMFQAKEEGLKVAKFHCGTILYPIEVMEDEHNHEGERFEKISSLTNGFTAPEDACASFRLVLQQLKQFEEALHEHIHLENNIIFPRALELEKKEAI	not soluble
MKNLINWFEIPVTDMARAIAFYEQVMQISLRRETMDGADLAVFPYAEPGPGGALIKQDDVAPVAQGVVIYLHTADLLASIERVVLAGGKCVLEPMVPGDDIGTIALFIDSEGNRIGLHQPALEHHHHHH	not soluble
MENRRIVIITGANSGIGKEAAQRFANEGDHVIMACRNIAFSRKVQHDIIAASGNDHVDLLELDVSSFASIRTFCTTFNSQYKRLDILIHNAAYFNHGEPYRLSPDGIELTFATNVFGPYLLTSLLRDRLKQSEDPRILHAGSNIIKHFFDPKQTFDLDLLQGNHGTKSYSVYKMYCQSKMALMLLTFQMAEVFADDGIKVNALQINGAKMSKRTIQKVKPWWRPIAWGQNLFFPPPSYMADKYFTICTSDKYKQTTGKLFNDKLEIMEPSPTHYPGFFKQMKLLLGSNVYPAYENTNIREKLWALCKELVGELEHHHHHH	not soluble
